Laboratory results published in the domain aggregation screens of Martell et al. (2025).

Experiment: soluble fraction after stress (log2 fold change); higher = more stays soluble; pooled small domains, quantitative proteomics
Details: stress: 50 degC
Procedure, shortened: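 Custom libraries of small protein domains were pooled and measured in a high-throughput format, with quantitative proteomics as the read-out. Each library was stressed at 50°C. The value is the log2 fold change in the amount of each protein that stays soluble after stress, used as a measure of aggregation propensity; higher values mean more of the protein stays soluble.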

| Sequence | soluble fraction (log2) |
| --- | --- |
| HMGIGSTLTDGVRVYASDDEIVVNAPAESDVRIFNAGGAQLYAGRVADVRVAVAKGLYVVTVDGRSTKITV | 0.00295 |
| HMQPIQPNQAKYLDGLSSKYKGKGNHSQAAQLTALRDALNAGDHAKAREIYDKLDYEPQAEAAH | 0.351 |
| HMNQKVRQLLSQAQAEMERKNYKQAIKLLDQALAIEPHSGELHFMKGYAWMSMGEFEKALESLYEARNYA | -0.399 |
| HMDATFKVRVSVPDLNIRSGPGTNYAATGRFTGVGVFTITAVQSGQGSSSGWGKLKSGAGWIALDYAKR | -2.39 |
| HMSEEIKVPNFVGSTFEKAQALAQETGLEIARGEDVYSPDQEEGKITSQNPTADSVVSPGKLITVYVSKG | 0.00159 |
| HMAQLSDMLTYLRKRKGLSQQELANTLKISRSAIGMYETGKREPDLETLEVFADFYNVDMNTLTGKA | -0.143 |
| HMDDFGERLRKLRVAQDLTQQQLGEKLGVVPSTIGKYEKVKDSYPSIEVLIKLSDFFSVSTDYLLKG | -1.88 |
| HMYFDDEELDTYKGRASNAYSPDETAQFEEVMTTMRPDEVAAWLRSLQLRGINLPDELKDEAIMLVE | -0.0866 |
| HMHPMVEAYLADLDRALSGSDPREHAETMSAVREHLADAIAPDATAEQVRHALDELGPVEAIAAG | 0.0172 |
| HMEKTIQIYDNIIIKDFAEKMEVSPSQVITKLIGLGVMANLNQPIDINSAVIVGKEFGFNVESM | -0.674 |
| HMEKINLIIEEDNNLRLDKVIAMQLQELSRTQIQDMINQGLVLVNQKKEKASYKTKLNDEIEITILD | -1.37 |
| HMGIILDWELFEQFADKLKRKKVDFVIEPYLRFEGRRGEQSTLFIKDPSGNYLEFKAFKNIDMLFEK | -0.874 |
| HMDVDKQLDQLLAAMIPDKSLRQTIKTKAFNELVDNELADKDISSWTKQTMDVFMTRAEDMFGAM | -0.136 |
| HMDDEDLAFLQREFVSYQQAMDYYGLGYKPVVRLSHISGSVYKIGKKVLIRRNIFEEYLRNHV | -0.00496 |
| HMSHGNAALTPRQRLRLARLVVDDQWSVSAAAEFFRVSYPTAAKWARRYVELGPAGMADRSS | -1.42 |
| HMLDYQLQVFKDTLEANRKHRGQKIVFIHGKGEGVLRRALIHALNYQYKKFTYQDASFREYGYGATQVTI | -0.103 |
| HMLADRANMAPAALRQIMTAIDGGNVTPKQIESATGMAHATVARALRKMLDDGLIANDGKGRYTVLT | -0.0609 |

| Sequence | soluble fraction (log2) |
| --- | --- |
| HMKDITPASEDQLKAITDLMLKVNGEWSDAFFTFISKKFNHQISSPEQLTTFEANTIIDMLRKKAEG | 0.192 |
| HMATNVLEISTRNKNILIQDSLNLVESFYSKSDNQYWYKLVFKTKDDLNKFLQEVSEDENTITYKTSSI | 0.217 |
| HMMKLSKRQEQIIAVVKEHQPVSGERISDILAVSRATLRSDLSFLTLSGILKASPKVGYTYES | -1.12 |
| HMQITDTEAIATTLDEIIAANPKEWERLKAGQEQLVKFFVGQVMRVTKGRANPQVVNDLLKERL | -0.075 |
| HMDLSQTVQAKALARVNVREGAGTHFKSLGKLKKGELLPVFRVGNSWASIWWKGRVAYVHTDYLRFESA | -0.847 |
| HMSGQLTEEQVKQIVTTAVKNSSGSTLTAAEVSRIVSTAVANNLTADQVKTVVNNALAGITTDISTLKA | 0.0898 |
| HMRMDKHLWLSLLRLINEGSAEELQTKKDELLQSLERLRITRGPVRGDVLRVVRLIDEELVSRLHLDQR | -2.29 |
| HMIISMKKGATPQEISHVRKLIEELGYKVHESQGSERMVFGAIGDERSKHRLTSLEAQPGVEKVIPILA | 0.191 |
| HMDNPVPVIITDQNFQPQLWKNVGVPTDTLFHELSAANQRKLENLMKTMIQTPLTDNGKISGYAFYSK | 0.0665 |
| HMGMAGILDSARMASFIQEKLGYGGGQIRASVMGGHGDDMVPLPRYSTVAGVPLSDVLTQNEIDEMFAQ | -0.0615 |
| HMAETLLWADAAQEGLNRIVAAQPILVRISAAKRLRDASEQAAKAAGVSTVEIGHVQHASESLQFGDA | 0.165 |
| HMTIGKIVNIIEGSYANVRSAPDQNSEPIGRAYPGDAFLVDPLGSSGDWVKVTYEGQSGFIFQAYISV | -1.29 |
| HMGWQPDPLTTRERLVAELATQASNAQIAEQLHLSVRTVEGHLAHVYTKLGITTRRELPAALAGAR | -0.891 |
| HMTETNSVTINERLTLYRRSRSGRWQARVKLNTGEWHRFSTGTADFEKAKESAHRELHNVGFRAENNLPQ | -0.598 |
| HMPVNEEFKRLIDKIKYEFSINQAQISERLGVKSTYLSDMINGRVPYNESMQKKIHEVFHIG | -0.0665 |
| HMNNKVAVKSGYYFELFDKDEIPATLEKMKQKVKIDNIKYDLYQGTSLEDERKIDTMFGEKMGYSIDDYI | 0.0224 |
